Measured values from publication PMC9181005, “Insights to the Structural Basis for the Stereospecificity of the Escherichia coli Phytase, AppA” (International Journal of Molecular Sciences, 2022).
Residue numbers refer to the chain shown, from its start. Numbers in names are those of the source.

B1: AppA (Escherichia coli periplasmic phytase) (Escherichia coli K-12) (protein)
chain: QSEPELKLESVVIVSRHGVRAPTKATQLMQDVTPDAWPTWPVKLGWLTPRGGELIAYLGHYQRQRLVADGLLAKKGCPQSGQVAIIADVDERTRKTGEAFAAGLAPDCAITVHTQADTSSPDPLFNPLKTGVCQLDNANVTDAILSRAGGSIADFTGHRQTAFRELERVLNFPQSNLCLKREKQDESCSLTQALPSELKVSADNVSLTGAVSLASMLTEIFLLQQAQGMPEPGWGRITDSHQWNTLLSLHNAQFYLLQRTPEVARSRATPLLDLIKTALTPHPPQKQAYGVTLPTSVLFIAGHDTNLANLGGALELNWTLPGQPDNTPPGGELVFERWRRLSDNSQWIQVSLVFQTLQQMRDKTPLSLNTPPGEVKLTLAGCEERNAQGMCSLAGFTQIVNEARIPACSL
notes: mature enzyme lacking the periplasmic signal peptide (residues 1–22)
B2: AppA-HAT (Escherichia coli K-12; D326A) (protein)
chain: B1 chain with D304A
notes: as for B1
B3: AppA-HET (Escherichia coli K-12; D326E) (protein)
chain: B1 chain with D304E
notes: as for B1
B4: AppA-HAE (Escherichia coli K-12; D326A/T327E) (protein)
chain: B1 chain with D304A, T305E
notes: as for B1
B5: AppA-HDE (Escherichia coli K-12; T327E) (protein)
chain: B1 chain with T305E
notes: as for B1

Columns and labels:
[1] = biological target: T1, AppA (Escherichia coli periplasmic phytase) (Escherichia coli, UniProt P07102); assay: X-ray crystal structure at […] Å (soak at pH […]); phytase inhibition assay at pH […]; type: biochemical
T1 construct: mature enzyme lacking the periplasmic signal peptide (residues 1–22)
T1 sequence (P07102 23-432): B1 chain

[2] = substrate: O=P(O)(O)O[C@H]1[C@H](OP(=O)(O)O)[C@@H](OP(=O)(O)O)[C@H](OP(=O)(O)O)[C@@H](OP(=O)(O)O)[C@H]1OP(=O)(O)O; assay: phosphate release kinetics (Km), HPLC of products; type: biochemical, Escherichia coli; conditions: active site
[3] = preferential hydrolysis of the 1D-6-phosphate
[4] = predominantly 1D-1/3-phytase activity

Molecule | Km [2] [µM] | kcat [2] [s⁻¹] | kcat/Km [2] [M⁻¹ s⁻¹] | further results
O=S(=O)(O)O[C@H]1[C@H](OS(=O)(=O)O)[C@@H](OS(=O)(=O)O)[C@H](OS(=O)(=O)O)[C@@H](OS(=O)(=O)O)[C@H]1OS(=O)(=O)O [InsS6] |  |  |  | IC50 [1]: ~10 µM
B1 |  |  |  | Km [2, 3]: 161 µM; kcat [2, 3]: 10200 s⁻¹; kcat/Km [2, 3]: 6.4e+07 M⁻¹ s⁻¹
B2 |  |  |  | Km [2, 4]: 32 µM; kcat [2, 4]: 10.5 s⁻¹; kcat/Km [2, 4]: 320000 M⁻¹ s⁻¹
B3 | 171 | 128 | 700000 | 
B4 | 33 | 12.5 | 380000 | 
B5 | 92 | 1690 | 1.8e+07 | 
